How the values were obtained:
GST-CTBP2 = biological target: T1, GST-CTBP2 (UniProt P56546 1-445); assay: pull-down; recombinant truncated FLAG-Suz12 and GST-CTBP2 incubated in vitro; pull down with glutathione Sepharose; details: both partners purified
T1 construct: also called GST-tagged Ctbp2; source: E. coli BL21 DE3 pLysS, purified (glutathione Sepharose 4B)

[1] = biological target: the molecule itself; assay: pull-down; 1 ug GST-tagged and 1 ug His6-tagged recombinant Ctbp2, pulled down with GSH beads; 25 mM Tris-Cl pH 7.5, 0.1% NP-40, 150 mM NaCl, NADH, BSA, 10% glycerol, 4 C; for the phosphorylated form after in vitro phosphorylation with HA-Chk2

T1 sequence (P56546 whole entry, the tested form may be a part): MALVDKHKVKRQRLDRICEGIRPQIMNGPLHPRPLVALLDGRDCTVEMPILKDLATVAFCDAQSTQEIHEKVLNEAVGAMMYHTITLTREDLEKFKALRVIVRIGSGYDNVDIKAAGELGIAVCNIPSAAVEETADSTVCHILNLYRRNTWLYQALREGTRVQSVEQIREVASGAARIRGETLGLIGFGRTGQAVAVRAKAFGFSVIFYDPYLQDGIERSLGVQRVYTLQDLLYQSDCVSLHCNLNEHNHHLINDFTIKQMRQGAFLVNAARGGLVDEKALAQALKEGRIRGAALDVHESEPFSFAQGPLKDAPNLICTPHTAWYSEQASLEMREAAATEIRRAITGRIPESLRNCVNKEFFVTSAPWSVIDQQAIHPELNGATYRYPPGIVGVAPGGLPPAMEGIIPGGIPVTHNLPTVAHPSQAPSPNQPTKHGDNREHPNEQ

binding result (GST-CTBP2)	Binder	binding result [1]
binds	FLAG-Suz12 1–138 (recombinant truncated Suz12, N-terminal region) (domain or fragment, human, UniProt Q15022 1-138, looked up, the methods call the cloned PRC2 components human) MAPQKHGGGGGGGSGPSAGSGGGGFGGSAAVAAATASGGKSGGGSCGGGGSYSASSSSSAAAAAGAAVLPVKKPKMEHVQADHELFLQAFEKPTQIYRFLRTRNLIAPIFLHRTLTYMSHRNSRTNIKRKTFKVDDML	–
–	GST- or His6-tagged recombinant CTBP2, wild type (the two copies of the in vitro self-binding assay) (natural protein, Two differently tagged copies of one protein; each copy carries one tag; The same constructs stand singly as m31 (His6) and m33 (GST); also called recombinant wild-type Ctbp2; source: E. coli BL21 DE3 pLysS, purified (glutathione Sepharose 4B or Ni-NTA agarose)) not shown	binds
